# Measurements reported in patent publication US20220064316A1 (published 2022).
# T1: human BCMA (B-cell maturation antigen) on cells (human, UniProt Q02223 1-184)
# T1 sequence (looked up): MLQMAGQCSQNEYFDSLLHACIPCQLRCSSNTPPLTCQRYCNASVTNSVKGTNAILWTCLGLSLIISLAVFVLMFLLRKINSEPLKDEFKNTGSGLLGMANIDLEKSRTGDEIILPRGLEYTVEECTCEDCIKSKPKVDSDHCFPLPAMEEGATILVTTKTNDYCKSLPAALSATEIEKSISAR
# T2: BCMA-Fc antigen (R&D Systems) (UniProt Q02223 1-54)
# T2 construct: also called BCMA fc fusion protein (R&D Systems, cat #193-BC-050); recombinant BCMA-Fc; not shown: Fc portion of the bought fusion protein
# T2 sequence (looked up): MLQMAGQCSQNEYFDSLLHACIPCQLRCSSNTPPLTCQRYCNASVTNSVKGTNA
# Tests used:
# [1] = biological target: T1, human BCMA (B-cell maturation antigen) …; assay: cell-based or functional assay
# [2] = biological target: T2, BCMA-Fc antigen (R&D Systems); assay: flow cytometry; BCMA-Fc staining of CAR-transduced JNL cells
# Protocol: Jurkat-NFAT-luciferase (JNL) cells transduced with BCMA CAR constructs were evaluated for activation in response to BCMA-expressing target cell lines. Small-scale viral supernatant samples were generated in HEK293T cells for transduction of JNL cells. On Day 3 following transduction, BCMA CAR-transduced JNL cells were incubated with target cells at an effector-to-target (E:T) ratio of 6:1. Target cell lines were: K562-BCMA (engineered to stably express BCMA), K562 (parental line), and BCMA positive multiple myeloma cell lines, NCI-H929 and RPMI 8226. JNL activation was measured using Bright-Glo substrate (Promega) on Day 4. CAR expression on transduced JNL was assessed on Day 7 with BCMA-Fc antigen and Biotin-Protein L reagent (Table 21).
"JNL binding assay, ratio to K562; K562-BCMA [1] [ratio]","JNL binding assay, ratio to K562; NCI-H929 [1] [ratio]","JNL binding assay, ratio to K562; RPMI 8226 [1] [ratio]","Proliferation CD3, ratio to no target; K562-BCMA [1] [ratio]","Proliferation CD3, ratio to no target; KMS11-luc [1] [ratio]","Proliferation CD3, ratio to no target; NCI-H929 [1] [ratio]","Proliferation CD3, ratio to no target; RPMI 8226 [1] [ratio]","Proliferation CD4, ratio to no target; K562-BCMA [1] [ratio]","Proliferation CD4, ratio to no target; KMS11-luc [1] [ratio]","Proliferation CD4, ratio to no target; NCI-H929 [1] [ratio]","Proliferation CD4, ratio to no target; RPMI 8226 [1] [ratio]","Proliferation CD8, ratio to no target; K562-BCMA [1] [ratio]","Proliferation CD8, ratio to no target; KMS11-luc [1] [ratio]","Proliferation CD8, ratio to no target; NCI-H929 [1] [ratio]","Proliferation CD8, ratio to no target; RPMI 8226 [1] [ratio]",% CAR+ (BCMA-Fc detection) [2] [%],Binder
3.74,2.68,3.66,3.47,3.2,3.46,3.48,5.4,3.84,5.05,4.44,2.34,2.79,2.53,2.86,32.7,"BCMA-13 CAR (139112) (other, also called B13; KG66-98AB) QVQLVESGGGLVQPGGSLRLSCAVSGFALSNHGMSWVRRAPGKGLEWVSGIVYSGSTYYAASVKGRFTISRDNSRNTLYLQMNSLRPEDTAIYYCSAHGGESDVWGQGTTVTVSSASGGGGSGGRASGGGGSDIRLTQSPSPLSASVGDRVTITCQASEDINKFLNWYHQTPGKAPKLLIYDASTLQTGVPSRFSGSGSGTDFTLTINSLQPEDIGTYYCQQYESLPLTFGGGTKVEIKTTTPAPRPPTPAPTIASQPLSLRPEACRPAAGGAVHTRGLDFACDIYIWAPLAGTCGVLLLSLVITLYCKRGRKKLLYIFKQPFMRPVQTTQEEDGCSCRFPEEEEGGCELRVKFSRSADAPAYKQGQNQLYNELNLGRREEYDVLDKRRGRDPEMGGKPRRKNPQEGLYNELQKDKMAEAYSEIGMKGERRRGKGHDGLYQGLSTATKDTYDALHMQALPPR"
3.17,2.78,3.36,2.9,2.76,2.98,3.27,3.42,2.94,3.41,3.66,1.51,2.11,1.76,2.12,23.4,"BCMA-12 CAR (139111) (other, also called HU13-58ZB) EVQLLESGGGLVQPGGSLRLSCAVSGFALSNHGMSWVRRAPGKGLEWVSGIVYSGSTYYAASVKGRFTISRDNSRNTLYLQMNSLRPEDTAIYYCSAHGGESDVWGQGTTVTVSSASGGGGSGGRASGGGGSDIVMTQTPLSLSVTPGQPASISCKSSQSLLRNDGKTPLYWYLQKAGQPPQLLIYEVSNRFSGVPDRFSGSGSGTDFTLKISRVEAEDVGAYYCMQNIQFPSFGGGTKLEIKTTTPAPRPPTPAPTIASQPLSLRPEACRPAAGGAVHTRGLDFACDIYIWAPLAGTCGVLLLSLVITLYCKRGRKKLLYIFKQPFMRPVQTTQEEDGCSCRFPEEEEGGCELRVKFSRSADAPAYKQGQNQLYNELNLGRREEYDVLDKRRGRDPEMGGKPRRKNPQEGLYNELQKDKMAEAYSEIGMKGERRRGKGHDGLYQGLSTATKDTYDALHMQALPPR"
